According to article PMC10421103, “Efficiency Assessment between Entrapment and Covalent Bond Immobilization of Mutant β-Xylosidase onto Chitosan Support” (Polymers, 2023):

Substrate: O=[N+]([O-])c1ccc(O[C@@H]2OC[C@@H](O)[C@H](O)[C@H]2O)cc1
Assay: purified protein
Type: biochemical, Geobacillus stearothermophilus
Details: free enzyme, partially purified, 200 mM citrate-phosphate-glycine buffer pH 6.5, 50 °C, 0.22–2.00 mM substrate

B1: XynB2^Y509E (Geobacillus stearothermophilus; Y509E) (protein)
chain: MATNLFFNAHHSPVGAFASFTLGFPGKSGGLDLELARPPRQNVFIGVESPHEPGLYHILPFAETAGEDESKRYDIENPDPNPQKPNILIPFAKERIEREFRVATDTWKAGDLTLTIYSPVKAVPDPETASEEELKLALVPAVIVEMTIDNTNGTRTRRAFFGFEGTDPYTSMRRIDDTCPQLRGVGQGRILGIASKDEGVRSALHFSMEDILTATLEENWTFGLGKVGALIADVPAGEKKTYQFAVCFYRGGCVTAGMDASYFYTRFFHNIEEVGLYALEQAEVLKEQAFRSNELIEKEWLSDDQKFMMAHAIRSYYGNTQLLEHEGKPIWVVNEGEYRMMNTFDLTVDQLFFELKMNPWTVKNVLDFYVERYSYEDRVRFPGDETEYPGGISFTHDMGVANTFSRPHYSSYELYGISGCFSHMTHEQLVNWVLCAAVYIEQTKDWAWRDRRLTILEQCLESMVRRDHPDPEKRNGVMGLDSTRTMGGAEITTYDSLDVSLGQARNNLELAGKCWAAYVALEKLFRDVGKEELAALAREQAEKCAATIVSHVTEDGYIPAVMGEGNDSKIIPAIEGLVFPYFTNCHEALREDGRFGDYIRALRQHLQYVLREGICLFPDGGWKISSTSNNSWLSKIYLCQFIARRILGWEWDEQGKRADAAHVAWLTHPTLSIWSWSDQIIAGEISGSKYYPRGVTSILWLEEGE
notes: recombinant in E. coli C43 from plasmid pJAVI100 (xynB2 with Y509E); partially purified by heat treatment 45 °C and dialysis; GH52
With B1 the Km was 900 ± 100 µM and the Vmax was 0.0011 µmol/min.
